For 1 molecule, Kd and IC50 results are on record in patent US20250382388A1 (ARGENX, published 2025).

In assay [1] the target is T1, human serum albumin (human, UniProt P02768 25-609).
T1 construct: Immobilised on SPR chips; also added in solution to the cell assays; also called HSA; humanSA
As to the kind of experiment: SPR, pH 7.4 (ka and kd N/A).

In assay [2] the target is T1, human serum albumin. The assay can be described thus: SPR, pH 5.5 (ka and kd N/A).
The target of assay [3] is T2, neonatal Fc receptor (FcRn), endogenous in U937 cells (UniProt P55899 24-365; P61769 21-119).
T2 construct: whole, on cells; Free FcRn was stained inside fixed and permeabilised cells
T2 sequence (P55899 24-365 limits assumed, chain 1 of 2): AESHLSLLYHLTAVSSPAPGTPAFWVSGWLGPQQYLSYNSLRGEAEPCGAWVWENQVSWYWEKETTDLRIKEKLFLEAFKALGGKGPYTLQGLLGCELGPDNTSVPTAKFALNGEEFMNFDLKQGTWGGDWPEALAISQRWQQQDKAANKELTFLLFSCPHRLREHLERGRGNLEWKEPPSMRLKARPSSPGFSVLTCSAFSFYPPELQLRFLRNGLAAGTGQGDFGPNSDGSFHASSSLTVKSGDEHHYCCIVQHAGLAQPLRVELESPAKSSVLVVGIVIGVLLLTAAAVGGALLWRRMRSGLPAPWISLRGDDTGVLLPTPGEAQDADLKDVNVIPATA
T2 sequence (P61769 21-119 limits assumed, chain 2 of 2): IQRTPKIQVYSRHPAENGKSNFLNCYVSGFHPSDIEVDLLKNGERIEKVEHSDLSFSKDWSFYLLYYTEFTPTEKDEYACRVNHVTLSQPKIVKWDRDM
The assay can be described thus: cell FcRn occupancy, flow cytometry, free FcRn stained with labelled anti-FcRn Fab, U937 cells, 2,500 nM HSA (SD 0.5).
Description: Next, FcRn occupancy was tested using a cell-based FcRn occupancy assay in the presence or absence of albumin. Briefly, test articles (Fc-ABDEG-VHH molecules) were pre-incubated with HSA for 30 minutes at 37° C., pH 7.4 in FACS buffer. Cells (HEK FcRn mut or U937) were plated in a 96-well microplate. Cells were incubated with test article for two hours, shaking at 37° C., pH 7.4 in FACS buffer. Plates were then transferred immediately on ice and cells were collected by centrifugation at 4° C. Cells stained for viability in FACS buffer at pH 6 and then fixed/permeabilized in permeabilization buffer at pH 6. […] Cells were analyzed by FACS, ensuring that they are kept on ice until immediately prior to analysis.

B1: ABDEG-30GS-Alb23-SM-A (Fc fusion)
chain 1: DKTHTCPPCPAPELLGGPSVFLFPPKPKDTLYITREPEVTCVVVDVSHEDPEVKFNWYVDGVEVHNAKTKPREEQYNSTYRVVSVLTVLHQDWLNGKEYKCKVSNKALPAPIEKTISKAKGQPREPQVYTLPPSRDELTKNQVSLWCLVKGFYPSDIAVEWESNGQPENNYKTTPPVLDSDGSFFLYSKLTVDKSRWQQGNVFSCSVMHEALKFHYTQKSLSLSPGGGGGSGGGGSGGGGSGGGGSGGGGSGGGGSEVQLLESGGGLVQPGGSLRLSCAASGFTFRSAGMSWVRQAPGKGPEWVSSISGSGSDTLYADSVKGRFTISRDNSKNTLYLQMNSLRPEDTAVYYCTIGGSLSRSSQGTLVTVSSA
chain 2: DKTHTCPPCPAPELLGGPSVFLFPPKPKDTLYITREPEVTCVVVDVSHEDPEVKFNWYVDGVEVHNAKTKPREEQYNSTYRVVSVLTVLHQDWLNGKEYKCKVSNKALPAPIEKTISKAKGQPREPQVYTLPPSRDELTKNQVSLSCAVKGFYPSDIAVEWESNGQPENNYKTTPPVLDSDGSFFLVSKLTVDKSRWQQGNVFSCSVMHEALKFHYTQKSLSLSPG
Turning to B1, the figures for the Kd with human serum albumin [1] and with human serum albumin [2] were 31.4 µM and 19 µM, respectively. Besides, the half-inhibitory concentration (IC50) in assay [3] amounted to 0.0023 µM.
